{
  "source": "patent US20240093191A1",
  "about": "“COMPOSITIONS AND METHODS FOR TREATING DISEASE ASSOCIATED WITH DUX4 OVEREXPRESSION” (RESEARCH INSTITUTE AT NATIONWIDE CHILDREN'S HOSPITAL, priority 2021, published 2024)",
  "assay_type_in_all_cases": "cell-based, human",
  "key": {"mir-675-5p [1]": {"tested_on": "mir-675-5p", "assay": "ddPCR of all mature mir-675-5p sequences (TaqMan Advanced miRNA cDNA synthesis) in HEK293 cells", "procedure": "Digital Droplet PCR (ddPCR). For mir-675 and mi405 constructs, RNA extraction was carried out as described for QPCR above. For cDNA synthesis, the TaqMan advanced cDNA synthesis kit (Thermo Fisher) was used and cDNA was prepared by following manufacturer's instructions. ddPCR was carried out using 1× ddPCR Supermix for probes (No dUTP) (Bio-Rad), 1× commercially available mir-675 advanced TaqMan probe, or a custom made mi405 advanced TaqMan probe (ThermoFisher) and 50 ng of cDNA. For DUX4 cDNA synthesis, the High-Capacity cDNA Reverse Transcription Kit (Applied Biosystems) was used according to manufacturer's instructions. Within the same cDNA reaction, 1×RT random hexamer primers and 25 pmoles of the Oligo(dT) primer were used to generate cDNA for DUX4 and DUX4-responsive biomarkers and for mouse Rpl13A, used as a reference gene. To quantify DUX4, the ddPCR reaction mixture (20 μL) contained 1× ddPCR Evagreen Supermix (Bio-Rad), 1 μM of forward and reverse DUX4 primers (Sharma et al., J Genet Syndr Gene Ther 2016 August; 7(4):303. doi: 10.4172/2157-7412.1000303. Epub 2016 Aug. 8), and 50 ng of cDNA. To quantify Rpl13A and DUX4-responsive biomarkers (Trim36 and Wfdc3), the 1× ddPCR Supermix for probes (No dUTP) and TaqMan specific probes were used for each of the genes. Droplets were generated using the Automatic Droplet generator QX200 AutoDG (Bio-Rad), the reactions were amplified in a C1000 Touch™ Thermal Cycler with 96-Deep Well Reaction Module (Bio-Rad). Cycling conditions were set up following the QX200 ddPCR Evagreen Supermix protocol. All assays are compatible with an annealing temperature of 58° C. Droplets were then read using the QX200 droplet reader (Bio-Rad). Finally, data were analyzed using the QuantaSoft analysis software (Bio-Rad). For quantification, each reaction of 20 μL was estimated to give at least 10,000 acceptable droplets.\nIn order to quantify the level of all these mature sequences, the TaqMan advanced miRNA cDNA synthesis method that uses universal reverse transcription (RT) chemistry to synthesize cDNA templates that can be quantified using the TaqMan Advanced miRNA probes was used. In this method, most of the processed mature miRNA sequences were quantified."}, "mir-675-5p [2]": {"tested_on": "mir-675-5p", "assay": "Small-transcript northern blot of mir-675 processing in HEK293 cells", "details": "HEK293; anti-mir-675-5p biotinylated probe", "source_text": "Small-Transcript Northern Blots. […] (SEQ ID NO: 148))."}, "mir-675-5p [3]": {"tested_on": "mir-675-5p", "assay": "TaqMan QRT-PCR of mature mir-675-5p from transfected constructs in HEK293 cells", "details": "HEK293, 24 h post-transfection; for mir-675-5p levels compared to U6.mir-675: 23 mer mature mir-675-5p", "source_text": "RNA Extraction. RNA from HEK293 cells was extracted for Northern blot assay and QPCR. The miRVANA miRNA isolation kit (ThermoFisher Scientific) was used according to manufacturer's directions to extract total RNA encompassing small RNAs, such as miRNAs. To extract RNA from C57BL/6 skeletal muscles, cryopreserved muscles were crushed under suboptimal temperatures using liquid nitrogen and using mortar and pestle. Crushed muscles were then lysed using […] of miRVANA miRNA isolation kit lysis buffer, a TissueLyser and 1.0 mm zirconia beads (Biospec). Muscle was homogenized at 30 Hz for 30 sec with 10 sec rest. This was repeated 3 times.\nTaqMan Gene Expression Assay. QRT-PCR was carried out to quantify the expression of pri-mir-675, mir-675-5p and mi405 using TaqMan probes (ThermoFisher Scientific). Experiments were started by eliminating genomic DNA from the RNA preparations, and then cDNA was generated using the High-Capacity cDNA Reverse Transcription Kit (Applied Biosystems) following manufacturer's instructions. Within the same cDNA reaction, 1×RT random hexamer primers were used to generate the cDNA for RPL13A, used as a reference gene, and for pri-mir-675. To generate the cDNA for mir-675, the RT mir-675 reverse primer provided by ThermoFisher Scientific was used. For mi405, the mi405 qPCR protocol was done as it was previously described [Wallace et al., Mol. Ther. Methods Clin. Dev. 8: 121-30 (2018)]. To quantify mir-675 and mi405 levels, RNA was extracted using the total RNA protocol for the mirVana miRNA Isolation Kit (Ambion) from HEK293 cells. cDNA was generated using the High-Capacity cDNA Reverse Transcription Kit (Applied Biosystems) using a mix of random hexamer primers and specific reverse primer for pri-mir-675 and mir-675-5p. For mi405, 200 nM of the stem-loop forming primer (5′-[…]-3′) (SEQ ID NO: 144) was also used for the RT step. A custom TaqMan assay (Applied Biosystems) including 1.5 μM of Forward primer (5′-[…]-3′) (SEQ ID NO: 145), 0.7 μM of Reverse primer (5′-GTGCAGGGTCCGAGGT-3′) (SEQ ID NO: 146), and 0.2 μM of mi405 probe (5′-6FAM-ATACGACGTCCAGGAT-3′) (SEQ ID NO: 147) was then run using the CFX Connect Real Time system apparatus (Bio-Rad). RPL13A (Mm02526700_g1; Applied Biosystems) served as the reference gene. The TaqMan gene expression assay consisted of using the TaqMan Gene Expression Master mix and TaqMan probes purchased from ThermoFisher Scientific. 1× of probe was mixed with 1× of the TaqMan Gene Expression Master mix (ThermoFisher Scientific), and with 20 ng of cDNA. The mir-675- and mi405-specific primers and probes were designed to quantify only the mir-675-5p and mi405 mature sequence (see TaqMan Gene Expression Master mix protocol)."}, "DUX4 protein": {"tested_on": "DUX4 protein", "assay": "Western blot of V5-tagged DUX4 protein in co-transfected HEK293 cells", "details": "CMV.DUX4-FL/CMV.eGFP, HEK293, molar ratio 1 to 3, eGFP normalizer, relative to U6-milacZ, N = 3-8", "procedure": "Western Blots. […] 50 mM Tris (pH 7.5-8.0), 150 mM NaCl, 0.1% (v/v) SDS, 0.5% (v/v) deoxycholate, 1% (v/v) triton X-100 (Fisher Scientific) and 1 tablet of protease inhibitor (ThermoFisher Scientific) per 10 mL of buffer. The total protein extract was quantified using the DC Protein Assay (Bio-Rad). Twenty microgram samples were separated on 12% SDS-PAGE, transferred to nitrocellulose membrane, using the wet transfer system, and incubated with the following antibodies: mouse monoclonal antibody to V5 (horseradish peroxidase [HRP]-coupled) [1:5,000 in 5% milk TBST buffer (150 mM NaCl, 50 mM Tris-HCl pH 7.4 and 0.1% Tween 20 (Fisher Scientific)), R961-25; Invitrogen); rabbit polyclonal eGFP antibody (1:50,000 in 3% BSA PBS, ab290; Abcam); mouse monoclonal β-actin antibodies (1:60,000; Sigma, St Louis, MO); overnight at 4° C. When using the eGFP antibody, membranes were blocked 30 mins with 3% BSA PBS prior to blotting. eGFP-probed blots were washed five times, 5 min each with 0.5% Tween 20 (Fisher Scientific) in TBST buffer, and then incubated with HRP-coupled goat anti-rabbit secondary antibody (1:250,000 in 3% BSA PBS, 115-035-144; Jackson ImmunoResearch) for 2 hours at room temperature. V5-probed blots were washed five times, 5 min each with 0.1% Tween 20 in TBST buffer. Following washes, blots were developed using Immobilon Western HRP substrate (Millipore) and exposed to film. DUX4.V5, and eGFP quantification was assessed using ImageJ."}},
  "data": [
    {"molecule": "U6.mir-675F2: U6 mir-675 construct with H1.mir-675-like flanks and cPPT/CTS sequence (nucleic acid) DNA: TTTTAAAAGAAAAGGGGGGATTGGGGGGTACAGTGCAGGGGAAAGAATAGTAGACATAATAGCAACAGACATACAAACTAAAGAATTACAAAAACAAATTACAAAAATTCAAAATTTTTCTAGAGATCCGACGCCGCCATCTCTAGGCCCGCGCCGGCCCCCTCGCACAGACTTGTGGGAGAAGCTCGGCTACTCCCCTGCCCCGGTTAATTTGCATATAATATTTCCTAGTAACTATAGAGGCTTAATGTGCGATAAAAGACAGATAATCTGTTCTTTTTAATACTAGCTACATTTTACATGATAGGCTTGGATTTCTATAAGAGATACAAATACTAAATTATTATTTTAAAAAACAGCACAAAAGGAAACTCACCCTAACTGTAAAGTAATTGTGTGTTTTGAGACTATAAATATCCCTTGGAGAAAAGCCTTGTTTGCCCCAGGGTCTGGTGCGGAGAGGGCCCACAGTGGACTTGGTGACGCTGTATGCCCTCACCGCTCAGCCCCTGGGGAATTCTTCGATTCTGCTTTTTT", "values": [
      {"measurement": "fold change of all mature mir-675-5p sequences compared to U6.mir-675", "setting": "mir-675-5p [1]", "result": "181±34", "unit": "%"},
      {"measurement": "mature mir-675-5p bands on northern blot", "setting": "mir-675-5p [2]", "result": "detectable mir-675 mature sequences"},
      {"measurement": "mir-675-5p levels compared to U6.mir-675", "setting": "mir-675-5p [3]", "result": "882±108", "unit": "%"},
      {"measurement": "ratio of mir-675-5p/pri-mir-675 compared to U6.mir-675", "setting": "mir-675-5p [3]", "result": "918±169", "unit": "%"},
      {"measurement": "Average inhibition efficiency (%) of DUX4 protein levels", "setting": "DUX4 protein", "result": "79 ± 6 (N = 3) %"}
    ]},
    {"molecule": "U6.mir-675-2.1.1: mir-675 construct with modified 5' and 3' flanking sequences (nucleic acid) DNA: TCTAGAGATCCGACGCCGCCATCTCTAGGCCCGCGCCGGCCCCCTCGCACAGACTTGTGGGAGAAGCTCGGCTACTCCCCTGCCCCGGTTAATTTGCATATAATATTTCCTAGTAACTATAGAGGCTTAATGTGCGATAAAAGACAGATAATCTGTTCTTTTTAATACTAGCTACATTTTACATGATAGGCTTGGATTTCTATAAGAGATACAAATACTAAATTATTATTTTAAAAAACAGCACAAAAGGAAACTCACCCTAACTGTAAAGTAATTGTGTGTTTTGAGACTATAAATATCCCTTGGAGAAAAGCCTTGTTTGCCCCAGGGTCTGGTGCGGAGAGGGCCCACAGTGGACTTGGTGACGCTGTATGCCCTCACCGCTCAGCCCCTGGGGATAACTCCTAATCACACTTTTTT", "values": [
      {"measurement": "fold change of all mature mir-675-5p sequences compared to U6.mir-675", "setting": "mir-675-5p [1]", "result": "213±51", "unit": "%"},
      {"measurement": "mature mir-675-5p bands on northern blot", "setting": "mir-675-5p [2]", "result": "detectable mir-675 mature sequences"},
      {"measurement": "mir-675-5p levels compared to U6.mir-675", "setting": "mir-675-5p [3]", "result": "282±34", "unit": "%"},
      {"measurement": "ratio of mir-675-5p/pri-mir-675 compared to U6.mir-675", "setting": "mir-675-5p [3]", "result": "207±38", "unit": "%"},
      {"measurement": "Average inhibition efficiency (%) of DUX4 protein levels", "setting": "DUX4 protein", "result": "83±3", "unit": "%"},
      {"measurement": "Average inhibition efficiency (%) of DUX4 protein levels", "setting": "DUX4 protein; listed as U6-mir-675-2.1.1", "result": "83 ± 3 (N = 3) %"}
    ]}
  ]
}
